Experimental data as given in US20150320880A1, “ANTIBODY DRUG CONJUGATES” (NOVARTIS AG, priority 2013, published 2015).
Positions count from the first letter of the chain named.

T1: Cynomolgus monkey cKIT D1-5 (residues 25-520, C-terminal His tag) (cynomolgus monkey, UniProt P10721 25-520 (human entry))
T1 construct: the signal peptide was not part of the protein in the assay; also called cyno cKIT; cynomolgus monkey ECD
T1 chain: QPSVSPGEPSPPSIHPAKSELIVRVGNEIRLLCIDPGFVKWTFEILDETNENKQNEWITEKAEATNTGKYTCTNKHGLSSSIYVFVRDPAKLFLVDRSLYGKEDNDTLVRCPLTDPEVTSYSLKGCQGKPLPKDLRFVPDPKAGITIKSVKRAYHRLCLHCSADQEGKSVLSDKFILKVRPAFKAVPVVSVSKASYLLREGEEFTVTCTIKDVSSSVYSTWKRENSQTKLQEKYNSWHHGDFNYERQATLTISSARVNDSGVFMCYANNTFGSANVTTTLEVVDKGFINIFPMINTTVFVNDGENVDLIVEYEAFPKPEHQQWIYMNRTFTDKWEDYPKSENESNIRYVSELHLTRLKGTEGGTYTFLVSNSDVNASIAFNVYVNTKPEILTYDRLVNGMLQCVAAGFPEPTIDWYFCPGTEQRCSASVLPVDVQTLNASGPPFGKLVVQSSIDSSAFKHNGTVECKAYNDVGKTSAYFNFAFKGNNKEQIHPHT

T2: Mouse cKIT ECD, C-terminal 6x His (Sino Biological Inc, catalog number 50530-M08H) (mouse, UniProt P05532 25-527)
T2 construct: extracellular domain; Bought protein
T2 sequence (looked up): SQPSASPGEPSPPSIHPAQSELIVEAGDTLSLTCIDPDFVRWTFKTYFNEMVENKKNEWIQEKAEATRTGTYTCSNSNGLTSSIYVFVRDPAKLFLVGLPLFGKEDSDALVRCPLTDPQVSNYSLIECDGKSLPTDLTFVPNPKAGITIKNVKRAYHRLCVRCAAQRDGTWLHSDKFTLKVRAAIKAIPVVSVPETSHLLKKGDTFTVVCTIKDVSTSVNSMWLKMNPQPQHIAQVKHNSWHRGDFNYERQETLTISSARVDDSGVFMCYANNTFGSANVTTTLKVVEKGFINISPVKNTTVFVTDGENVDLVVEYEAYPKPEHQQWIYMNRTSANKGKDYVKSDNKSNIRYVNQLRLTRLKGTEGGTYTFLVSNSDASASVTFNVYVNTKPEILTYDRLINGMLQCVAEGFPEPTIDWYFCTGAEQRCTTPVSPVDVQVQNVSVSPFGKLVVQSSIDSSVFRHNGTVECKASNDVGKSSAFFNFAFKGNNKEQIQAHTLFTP

T3: Rat cKIT D1-5 (residues 25-526, C-terminal mFc) (rat)
T3 construct: The entry includes the linker and mouse Fc tag; also called rat cKIT-mFc
T3 chain: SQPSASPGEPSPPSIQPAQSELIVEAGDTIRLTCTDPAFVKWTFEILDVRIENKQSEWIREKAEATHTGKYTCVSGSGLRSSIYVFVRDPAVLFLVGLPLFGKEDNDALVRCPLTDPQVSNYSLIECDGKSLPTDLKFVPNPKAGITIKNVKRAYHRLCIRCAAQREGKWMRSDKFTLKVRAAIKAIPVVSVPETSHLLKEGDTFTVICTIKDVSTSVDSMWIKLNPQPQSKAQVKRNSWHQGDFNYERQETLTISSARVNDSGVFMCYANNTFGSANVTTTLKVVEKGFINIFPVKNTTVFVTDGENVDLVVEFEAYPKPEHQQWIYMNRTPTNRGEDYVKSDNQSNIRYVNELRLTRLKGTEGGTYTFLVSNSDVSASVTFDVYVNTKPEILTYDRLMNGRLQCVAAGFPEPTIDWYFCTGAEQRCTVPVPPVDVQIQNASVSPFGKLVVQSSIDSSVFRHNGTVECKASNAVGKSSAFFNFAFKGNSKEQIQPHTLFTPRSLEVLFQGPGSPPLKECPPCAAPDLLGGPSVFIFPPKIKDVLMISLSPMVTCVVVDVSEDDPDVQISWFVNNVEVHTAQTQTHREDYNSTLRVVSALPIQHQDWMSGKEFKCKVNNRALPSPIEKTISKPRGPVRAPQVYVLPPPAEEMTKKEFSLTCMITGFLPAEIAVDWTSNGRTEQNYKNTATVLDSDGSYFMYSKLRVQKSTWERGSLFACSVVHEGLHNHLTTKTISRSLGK

B1: NEG086 (antibody, human IgG1, kappa, V domains shown)
VH: EVQLVESGGGLVQPGGSLRLSCAASGFTFSDYYMAWVRQAPGKGLEWVANINQIAGSTYYVDSVQGRFTISRDNAKNSLYLQMNSLRAEDTAVYYCARGDYYGTTYWYFDVWGQGTTVTVSS
VL: DIQMTQSPSSLSASVGDRVTITCRASQSISSYLNWYQQKPGKAPKLLIYYTSRLQSGVPSRFSGSGSGTDFTLTISSLQPEDFATYYCQQGRRLWSFGGGTKVEIKR
notes: Humanized, optimized variant of 9P3; human IgG1 kappa
B2: NEG026: anti-cKIT antibody of Table 1; VH SEQ ID NO 46, VL SEQ ID NO 55 (antibody, V domains shown)
VH: B1 VH with I54N, A55T
VL: EIVMTQSPATLSLSPGERATLSCRASQDISNYLNWYQQKPGQAPRLLIYYTSRLQSGIPARFSGSGSGTDYTLTISSLEPEDFAVYYCQQGKKLWSFGGGTKVEIK
B3: NEG027 (antibody, human IgG1, kappa, V domains shown)
VH: B1 VH with N50S, I54N, A55T, V61L, Q65R
VL: EIVMTQSPATLSLSPGERATLSCRASQDISNYLNWYQQKPGQAPRLLIYYTSRLQSGIPARFSGSGSGTDYTLTISSLEPEDFAVYYCQQGKKLWSFGGGTKVEIKR
notes: as for B1
B4: NEG086: anti-cKIT antibody of Table 1; VH SEQ ID NO 100, VL SEQ ID NO 109 (antibody, V domains shown)
VH: B1 VH
VL: DIQMTQSPSSLSASVGDRVTITCRASQSISSYLNWYQQKPGKAPKLLIYYTSRLQSGVPSRFSGSGSGTDFTLTISSLQPEDFATYYCQQGRRLWSFGGGTKVEIK
B5: NEG027: anti-cKIT antibody of Table 1; VH SEQ ID NO 64, VL SEQ ID NO 73 (antibody, V domains shown)
VH: B1 VH with N50S, I54N, A55T, V61L, Q65R
VL: B2 VL
B6: NEG087: anti-cKIT antibody of Table 1; VH SEQ ID NO 118, VL SEQ ID NO 127 (antibody, V domains shown)
VH: B1 VH with N50S, I54N, A55T, V61L, Q65R
VL: B4 VL
B7: NEG024 (antibody, human IgG1, kappa, V domains shown)
VH: B1 VH with V61L, Q65R
VL: B3 VL
notes: as for B1
B8: NEG085 (antibody, human IgG1, kappa, V domains shown)
VH: B1 VH with T28A, D31G, Q53Y, I54P, A55G, G56S, V61L, Q65K
VL: B1 VL
notes: Humanized, optimized variant of 9P3; human IgG1 kappa; also called unconjugated NEG085
B9: NEG087 (antibody, human IgG1, kappa, V domains shown)
VH: B1 VH with N50S, I54N, A55T, V61L, Q65R
VL: B1 VL
notes: as for B1

How the values were obtained:
[1] = system: HAMLX5343 systemic primary AML xenograft
Method: Female NSG mice were implanted systemically (via tail vein injection) with 5×10^6 cells in phosphate buffered saline.
Leukemic burden was measured by flow cytometry. Weekly, blood was collected from all study animals via the tail. […] The stained cells were analyzed on a FACS Canto flow cytometer (BD Biosciences) (FIG. 52A). Body weights were measured twice weekly (FIG. 52B).

[2] = target: T4, Human cKIT D1-5 (human cKIT tr. variant 2, residues 26-520, C-terminal His tag) (human, UniProt P10721 26-524); assay: SPR (Biacore 2000), antibody captured on anti-human Fc, cKIT ECD as analyte, 25 C, 1:1 fit
T4 construct: also called human cKIT ECD; Human c-Kit ECD

[3] = target: T1, Cynomolgus monkey cKIT D1-5 (residues …); assay: as above
[4] = target: T2, Mouse cKIT ECD, C-terminal 6x His (Sino …); assay: SPR (Biacore 2000), antibody captured on anti-human Fc
[5] = target: T3, Rat cKIT D1-5 (residues 25-526, …); assay: as above
[6] = target: T4, Human cKIT D1-5 (human cKIT tr. variant …); assay: SPR (Biacore T100), CM5 chip, method as in Example 7; unconjugated antibody
mouse cKIT ECD = assay: SPR (Biacore 2000) affinity measurement; assay type: binding; conditions: 25° C.
Method: (§1) Affinity of the antibodies to cKIT species orthologues and also to cKIT was determined using SPR technology using a Biacore® 2000 instrument (GE Healthcare, Pittsburgh, Pa.) and with CM5 sensor chips.
(§2) Briefly, HBS-P (0.01 M HEPES, pH 7.4, 0.15 M NaCl, 0.005% Surfactant P20) supplemented with 2% Odyssey® blocking buffer (Li-Cor Biosciences, Lincoln, Nebr.) was used as the running buffer for all the experiments. The immobilization level and analyte interactions were measured by response unit (RU). Pilot experiments were performed to test and confirm the feasibility of the immobilization of the anti-human Fc antibody (Catalog number BR100839, GE Healthcare, Pittsburgh, Pa.) and the capture of the test antibodies.
(§3) For kinetic measurements, the experiments were performed in which the antibodies were captured to the sensor chip surface via the immobilized anti-human Fc antibody and the ability of the cKIT proteins to bind in free solution was determined Briefly, 25 μg/ml of anti-human Fc antibody at pH 5 was immobilized on a CM5 sensor chip through amine coupling at flow rate of 5 μl/minute on all two flow cells to reach 10,500 RUs. 0.1-1 μg/ml of test antibodies were then injected at 10 μl/min for 1 minute. Captured levels of the antibodies were generally kept below 200 RUs. Subsequently, 3.125-50 nM of cKIT receptor extracellular domains (ECD) were diluted in a 2-fold series and injected at a flow rate of 40 μl/min for 3 min over both reference and test flow cells. Table of tested ECDs is listed below. Dissociation of the binding was followed for 10 min. After each injection cycle, the chip surface was regenerated with 3 M MgCl2 at 10 μl/min for 30 s.

human cKIT ECD = target: T5, human cKIT ECD (Homo sapiens, UniProt P10721); assay: SPR (Biacore 2000) affinity measurement; assay type: binding; conditions: 25° C.
T5 construct: Human cKIT tr. variant 2, residues 26-520-TAG; made in house; host or cells: HEK293 derived cell lines (293FS), transient transfection
Method: as §1, §2, §3

T5 sequence (P10721 with tags, fused parts or gaps isoform P10721-2): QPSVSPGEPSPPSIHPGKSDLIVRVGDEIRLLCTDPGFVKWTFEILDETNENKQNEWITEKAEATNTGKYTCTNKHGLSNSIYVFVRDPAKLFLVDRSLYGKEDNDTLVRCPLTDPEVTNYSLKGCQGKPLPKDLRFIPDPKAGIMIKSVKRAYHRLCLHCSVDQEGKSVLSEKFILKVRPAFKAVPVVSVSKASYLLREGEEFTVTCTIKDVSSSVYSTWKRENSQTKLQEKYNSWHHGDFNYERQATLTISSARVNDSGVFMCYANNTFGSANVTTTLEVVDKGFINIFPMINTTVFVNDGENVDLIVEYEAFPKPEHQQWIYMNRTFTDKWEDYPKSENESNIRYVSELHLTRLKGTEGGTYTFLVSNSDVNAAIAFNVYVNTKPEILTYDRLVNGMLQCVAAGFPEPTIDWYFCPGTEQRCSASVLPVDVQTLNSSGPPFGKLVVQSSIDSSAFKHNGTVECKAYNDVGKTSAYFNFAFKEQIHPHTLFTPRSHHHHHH
T4 sequence (P10721 other isoform, or with tags, fused parts or gaps mutant limits assumed): as the sequence (P10721 with tags, fused parts or gaps isoform P10721-2) above

Row | Molecule | Kd [2] [nM] | Kd [3] [nM] | binding result [4] | binding result [5] | Kd [6] [nM] | Affinity mouse cKIT (nM) (mouse cKIT ECD) | Affinity human cKIT (nM) (human cKIT ECD) | also measured
1 | Nc1ccn([C@@H]2O[C@H](CO)[C@@H](O)[C@@H]2O)c(=O)n1 [ARA-C (cytarabine), cytarabine, reference compound] |  |  |  |  |  |  |  | Mean change of body weight (from day 67, % ± SEM) ([1]; Day 71, 50 mg/kg Daily × 6 days, intraperitoneally): 2.3 ± 2.3%; anti-tumor activity (leukemic burden) ([1]; NSG mice, intraperitoneally daily for 6 days): efficacious in three of the animals; bodyweight loss ([1]; intraperitoneally daily for 6 days, in three of six animals): > 20%; Mean change of tumor volume (% CD45 positive PBMC's ± SEM) ([1]; mouse, in vivo): −6.6 ± 2.1 % CD45 positive PBMC's; Regression (%) ([1]; mouse, in vivo): −52.5%
2 | B1 | 1.44 | 1.34 | no binding (tested: 3.125-50 nM of cKIT ECD injected) | no binding (tested: 3.125-50 nM of cKIT ECD injected) | 1.4 |  |  | 
3 | B2 |  |  |  |  |  | Not reactive |  | 
4 | B3 | 1.34 |  | no binding (tested: 3.125-50 nM of cKIT ECD injected) | no binding (tested: 3.125-50 nM of cKIT ECD injected) |  |  |  | 
5 | B4 |  |  |  |  |  | Not reactive | nanomolar level | 
6 | B5 |  |  |  |  |  | Not reactive | nanomolar level | 
7 | B6 |  |  |  |  |  | Not reactive | nanomolar level | 
8 | B7 | 1.31 | 1.15 | no binding (tested: 3.125-50 nM of cKIT ECD injected) | no binding (tested: 3.125-50 nM of cKIT ECD injected) | 1.3 |  |  | 
9 | B8 | 8.4 | 6.14 | no binding (tested: 3.125-50 nM of cKIT ECD injected) | no binding (tested: 3.125-50 nM of cKIT ECD injected) | 4.2 |  |  | 
10 | B9 | 1.13 | 1.39 | no binding (tested: 3.125-50 nM of cKIT ECD injected) | no binding (tested: 3.125-50 nM of cKIT ECD injected) |  |  |  | 
